Assay results: patent US20240116985A1 (published 2024)
Starred links: 1 amine or outer side, 2 acyl side, 3 side chain; linkers in the order of their positions; H or OH if unused. Positions of bridges follow the written chain, without caps; N, C: chain ends. Non-standard residues stand in square brackets, D forms with d. Primed or numbered codes have the meaning given here. B5(4) = 2,2-bis(4-pentenyl)glycine = 2-amino-2-(pent-4-en-1-yl)hept-6-enoic acid (stitching residue), C=CCCCC(CCCC=C)(N[*:1])C(=O)[*:2]; B5(5) = 2,2-bis(4-pentenyl)glycine, 2-amino-2-(pent-4-en-1-yl)hept-6-enoic acid (stitching residue), C=CCCCC(CCCC=C)(N[*:1])C(=O)[*:2]; SeN = (S)-5-(((allyloxy)carbonyl)(methyl)amino)-2-amino-2-methylpentanoic acid, C=CCOC(=O)N(C)CCC[C@](C)(N[*:1])C(=O)[*:2]; B5(9) = 2-amino-2-(pent-4-en-1-yl)hept-6-enoic acid (2,2-bis(4-pentenyl)glycine), C=CCCCC(CCCC=C)(N[*:1])C(=O)[*:2]; B5(19) = 2-amino-2-(pent-4-en-1-yl)hept-6-enoic acid (bis(4-pentenyl)glycine), C=CCCCC(CCCC=C)(N[*:1])C(=O)[*:2]; B5 = 2-amino-2-(pent-4-en-1-yl)hept-6-enoic acid, C=CCCCC(CCCC=C)(N[*:1])C(=O)[*:2]; S(OMe) = O-methyl-L-serine, COC[C@H](N[*:1])C(=O)[*:2]; Phe(2-CONH2) = NC(=O)c1ccccc1C[C@H](N)C(=O)O; Phe(3,4-F2) = N[C@@H](Cc1ccc(F)c(F)c1)C(=O)O; 2Nal = N[C@@H](Cc1ccc2ccccc2c1)C(=O)O; His(τ-Me) = Cn1cnc(C[C@H](N)C(=O)O)c1; Bta = N[C@@H](Cc1csc2ccccc12)C(=O)O; αAllylPro = C=CC[C@@]1(C(=O)O)CCCN1; S8 = C=CCCCCCC[C@](C)(N)C(=O)O

T1: full-length beta-Catenin (Uniprot ID P35222) (Homo sapiens (Human), UniProt P35222 1-781)
T1 construct: Used full-length in the FP and AlphaScreen assays; also called B-Catenin; bCat
T1 sequence: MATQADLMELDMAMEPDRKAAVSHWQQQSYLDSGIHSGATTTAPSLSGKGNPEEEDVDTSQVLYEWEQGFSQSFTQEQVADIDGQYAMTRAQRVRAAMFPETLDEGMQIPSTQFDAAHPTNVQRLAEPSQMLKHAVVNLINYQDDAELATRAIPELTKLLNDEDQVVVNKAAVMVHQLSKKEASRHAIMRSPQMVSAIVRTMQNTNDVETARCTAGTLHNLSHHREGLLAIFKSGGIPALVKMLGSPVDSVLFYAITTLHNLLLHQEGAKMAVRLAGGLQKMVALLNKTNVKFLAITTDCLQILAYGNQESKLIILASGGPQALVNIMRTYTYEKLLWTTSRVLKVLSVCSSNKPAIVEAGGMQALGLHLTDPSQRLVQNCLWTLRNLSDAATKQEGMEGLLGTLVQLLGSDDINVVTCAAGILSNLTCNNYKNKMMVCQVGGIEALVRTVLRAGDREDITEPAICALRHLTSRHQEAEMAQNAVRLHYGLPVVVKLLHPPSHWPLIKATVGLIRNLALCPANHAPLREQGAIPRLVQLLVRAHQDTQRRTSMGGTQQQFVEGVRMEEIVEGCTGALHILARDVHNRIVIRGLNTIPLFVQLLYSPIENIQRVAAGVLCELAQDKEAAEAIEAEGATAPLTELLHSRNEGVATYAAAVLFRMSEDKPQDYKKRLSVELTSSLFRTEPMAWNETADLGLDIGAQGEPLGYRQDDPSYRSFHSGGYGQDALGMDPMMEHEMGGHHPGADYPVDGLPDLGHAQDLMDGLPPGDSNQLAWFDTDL

T2: full-length beta-Catenin (Uniprot ID P35222) (Homo sapiens (Human), UniProt P35222 1-781)
T2 construct: also called bCat; B-Catenin
T2 sequence: T1 sequence

B1: I-181 (peptide)
peptide: XDIXDEAAFQXFWQ
modifications: not fully specified; As printed: Ac-PL3-Asp-Ile-B5-Asp-Glu-Ala-Ala-Phe-Gln-S8-Phe-Trp-Gln-NH2. N-terminal Ac; C-terminal amide; PL3 (1), B5 (4), S8 (11) stapled by olefin metathesis (PL3-B5 and B5-S8)
notes: Stapled peptide composition; this is the later-eluting isomer composition
B2: I-189 (peptide)
peptide: Ac-[αAllylPro]DI[B5(5)]DDAAFQ[SeN]FWH-NH2
modifications: staple 1-4, 4-11; not fully specified; printed as Ac-PL3-Asp-Ile-B5-Asp-Asp-Ala-Ala-Phe-Gln-SeN-Phe-Trp-His-NH2
notes: Stapled peptide composition
B3: I-180 (peptide)
peptide: XDIXDEAAFQXFWQ
modifications: not fully specified; As printed: Ac-PL3-Asp-Ile-B5-Asp-Glu-Ala-Ala-Phe-Gln-S8-Phe-Trp-Gln-NH2. N-terminal Ac; C-terminal amide; PL3 (1), B5 (4), S8 (11) stapled by olefin metathesis (PL3-B5 and B5-S8)
notes: Stapled peptide composition; this is the earlier-eluting isomer composition
B4: I-178 (peptide)
peptide: XDAXDEAAFQXFWH
modifications: not fully specified; As printed: Ac-PL3-Asp-Ala-B5-Asp-Glu-Ala-Ala-Phe-Gln-S8-Phe-Trp-His-NH2. N-terminal Ac; C-terminal amide; PL3 (1), B5 (4), S8 (11) stapled by olefin metathesis (PL3-B5 and B5-S8)
notes: Stapled peptide composition
B5: I-186 (peptide)
peptide: XDAXDEAAFAXFWA
modifications: not fully specified; As printed: Ac-PL3-Asp-Ala-B5-Asp-Glu-Ala-Ala-Phe-Ala-S8-Phe-Trp-Ala-NH2. N-terminal Ac; C-terminal amide; PL3 (1), B5 (4), S8 (11) stapled by olefin metathesis (PL3-B5 and B5-S8)
notes: as for B3
B6: I-188 (peptide)
peptide: Ac-[αAllylPro]DI[B5(5)]DDAAFQ[SeN]FWH-NH2
modifications: staple 1-4, 4-11; not fully specified; printed as Ac-PL3-Asp-Ile-B5-Asp-Asp-Ala-Ala-Phe-Gln-SeN-Phe-Trp-His-NH2
notes: Stapled peptide composition
B7: I-179 (peptide)
peptide: XDAXDEAAFQXFWH
modifications: not fully specified; As printed: Ac-PL3-Asp-Ala-B5-Asp-Glu-Ala-Ala-Phe-Gln-S8-Phe-Trp-His-NH2. N-terminal Ac; C-terminal amide; PL3 (1), B5 (4), S8 (11) stapled by olefin metathesis (PL3-B5 and B5-S8)
notes: Stapled peptide composition
B8: I-187 (peptide)
peptide: XDAXDEAAFAXFWA
modifications: not fully specified; As printed: Ac-PL3-Asp-Ala-B5-Asp-Glu-Ala-Ala-Phe-Ala-S8-Phe-Trp-Ala-NH2. N-terminal Ac; C-terminal amide; PL3 (1), B5 (4), S8 (11) stapled by olefin metathesis (PL3-B5 and B5-S8)
notes: as for B1
B9: I-329 (peptide)
peptide: Ac-[αAllylPro]DA[B5(4)]DDAA[His(τ-Me)]V[S8]FWQ-NH2
modifications: staple 1-4, 4-11; not fully specified; printed as Ac-PL3-Asp-Ala-B5-Asp-Asp-Ala-Ala-1meH-Val-S8-Phe-Trp-Gln-NH2
notes: Stapled peptide composition; also called Ac-PL3-Asp-Ala-B5-Asp-Asp-Ala-Ala-1meH-Val-S8-Phe-Trp-Gln-NH2
B10: I-353 (peptide)
peptide: XDAXDDAAAVXFWQ
modifications: not fully specified; N-terminal Ac; PL3 at 1; B5 at 4; S8 at 11; C-terminal NH2; stapled PL3-B5 and B5-S8 (olefin metathesis)
notes: Stapled peptide composition; also called Ac-PL3-Asp-Ala-B5-Asp-Asp-Ala-Ala-Ala-Val-S8-Phe-Trp-Gln-NH2
B11: I-330 (peptide)
peptide: Ac-[αAllylPro]DA[B5(4)]DDAA[His(τ-Me)]V[S8]FWQ-NH2
modifications: staple 1-4, 4-11
notes: as for B9
B12: I-336 (peptide)
peptide: Ac-[αAllylPro]DA[B5(4)]DDAAFV[S8][Phe(2-CONH2)][Bta]Q-NH2
modifications: staple 1-4, 4-11
notes: Stapled peptide composition; also called Ac-PL3-Asp-Ala-B5-Asp-Asp-Ala-Ala-Phe-Val-S8-2CBMF-BztA-Gln-NH2
B13: I-345 (peptide)
peptide: Ac-[αAllylPro]D[S(OMe)][B5(9)]DDAAFV[S8]F[Bta]Q-NH2
modifications: staple 1-4, 4-11
notes: Stapled peptide composition; also called Ac-PL3-Asp-S(OMe)-B5-Asp-Asp-Ala-Ala-Phe-Val-S8-Phe-BztA-Gln-NH2

These binders were tested against T1, full-length beta-Catenin (Uniprot ID …) (assay: AlphaScreen (nickel chelate) competition; full-length beta-catenin + biotin-TCF4(10-53) probe as competitor; peptide titrated).
Protocol: Equal volume of the titrated peptide was added to the plate and incubated for 15 minutes at 20° C. Then 4 uL of donor and 4 uL acceptor beads at 10 ug/mL were added to the plate, for a 16 uL reaction pool and protected from light for 60 minutes at 20° C. prior to read. Reads were performed on a CLARIOstar plate reader (BMG Labtech) in duplicate, and data were fitted to a 1:1 binding model with hill slope using an in-house script. All provided concentrations are final concentrations.

Which EC50 does the source give for Ac-[αAllylPro]DI[B5(5)]DEAAFV[S8]FWH-NH2 (staple 1-4, 4-11, Stapled peptide composition) [I-176] here?
The EC50 was 549 nM.

Which EC50 does the source give for B1 here?
Its EC50 is 51 nM.

How did the EC50 turn out when B2 was run?
The EC50 was 156 nM.

Which EC50 does the source give for B3 here?
The EC50 was 88 nM.

With Ac-[αAllylPro]DI[B5(19)]DEAAFQ[S8]FWA-NH2 (staple 1-4, 4-11, Stapled peptide composition) [I-194] as the binder, how does the EC50 read?
The EC50 was 105 nM.

Ac-[αAllylPro]DI[B5(5)]DEAAFV[S8]FWH-NH2 (staple 1-4, 4-11, Stapled peptide composition) [I-177] was tested. Which EC50 did it give?
The EC50 was 549 nM.

How did the EC50 turn out when Ac-[αAllylPro]DA[B5(4)]DEAA[Phe(3,4-F2)]V[S8]F[2Nal]Q-NH2 (staple 1-4, 4-11, Stapled peptide composition) [I-184] was run?
Its EC50 is 628 nM.

Ac-[αAllylPro]DA[B5(19)]D[dE]AAFV[S8]FWQ-NH2 (staple 1-4, 4-11, Stapled peptide composition) [I-182] was tested. Which EC50 did it give?
Its EC50 is 750 nM.

How did the EC50 turn out when Ac-[αAllylPro]DA[B5]NEAAFV[S8]FWQ-NH2 (staple 1-4, 4-11, Stapled peptide composition) [I-198] was run?
The EC50 was 538 nM.

B4 was tested. Which EC50 did it give?
Its EC50 is 152 nM.

B5 was tested. Which EC50 did it give?
Its EC50 is 518 nM.

For B6, which EC50 is on record?
The EC50 was 156 nM.

For B7, which EC50 is on record?
Its EC50 is 152 nM.

For B8, which EC50 is on record?
The EC50 was 204 nM.

These binders were tested against T2, full-length beta-Catenin (Uniprot ID …) (assay: fluorescence polarization competition vs 5FAM-TCF4(10-53) on full-length beta-catenin).
Protocol: (§1) The plate was incubated protected from light for 60 minutes at 20° C. prior to read. Reads were performed on a CLARIOstar plate reader (BMG Labtech) in duplicate, and data were fitted to a 1:1 binding model with hill slope using an in-house script. All provided concentrations are final concentrations.

With B9 as the binder, how does the IC50 read?
The IC50 was 5000 nM.

How did the IC50 turn out when B10 was run?
Its IC50 is 5000 nM.

For B11, which IC50 is on record?
Its IC50 is 5000 nM.

Which IC50 does the source give for B12 here?
The IC50 was 153 nM.

B13 was tested. Which IC50 did it give?
Its IC50 is 134 nM.

The binders below were run against T1, full-length beta-Catenin (Uniprot ID …) (assay: fluorescence polarization competition; full-length beta-catenin + 5FAM-TCF4(10-53) probe as competitor; peptide titrated).
Protocol: as §1

For Ac-[αAllylPro]DI[B5(5)]DEAAFV[S8]FWH-NH2 (staple 1-4, 4-11, Stapled peptide composition) [I-176], which EC50 is on record?
Its EC50 is 1990 nM.

B1 was tested. Which EC50 did it give?
Its EC50 is 310 nM.

Which EC50 does the source give for B2 here?
Its EC50 is 1600 nM.

Which EC50 does the source give for B3 here?
Its EC50 is 561 nM.

With Ac-[αAllylPro]DI[B5(19)]DEAAFQ[S8]FWA-NH2 (staple 1-4, 4-11, Stapled peptide composition) [I-194] as the binder, how does the EC50 read?
The EC50 was 1010 nM.

For Ac-[αAllylPro]DI[B5(5)]DEAAFV[S8]FWH-NH2 (staple 1-4, 4-11, Stapled peptide composition) [I-177], which EC50 is on record?
The EC50 was 1990 nM.

Ac-[αAllylPro]DA[B5(4)]DEAA[Phe(3,4-F2)]V[S8]F[2Nal]Q-NH2 (staple 1-4, 4-11, Stapled peptide composition) [I-184] was tested. Which EC50 did it give?
The EC50 was 3110 nM.

For Ac-[αAllylPro]DA[B5(19)]D[dE]AAFV[S8]FWQ-NH2 (staple 1-4, 4-11, Stapled peptide composition) [I-182], which EC50 is on record?
The EC50 was 2800 nM.

How did the EC50 turn out when Ac-[αAllylPro]DA[B5]NEAAFV[S8]FWQ-NH2 (staple 1-4, 4-11, Stapled peptide composition) [I-198] was run?
Its EC50 is 5000 nM.

With B4 as the binder, how does the EC50 read?
The EC50 was 1630 nM.

For B5, which EC50 is on record?
The EC50 was 5000 nM.

How did the EC50 turn out when B6 was run?
Its EC50 is 1600 nM.

Which EC50 does the source give for B7 here?
Its EC50 is 1630 nM.

With B8 as the binder, how does the EC50 read?
Its EC50 is 3320 nM.
